The values that follow are results of earlier work, collected in publication PMC3514653 (Neuromodulation : journal of the International …, 2012).

For the series the following is noted: dog, in vivo; cited from earlier work.

B1: BDNF: large growth factor (27 KDa); recombinant-methionyl human brain-derived neurotrophic factor (protein, UniProt P23560 19-247, looked up)
Neurotrophic factor BDNF …: APMKEANIRGQGGLAYPGVRTHGTLESVNGPKAGSRGLTSLADTFEHVIEELLDEDQKVRPNEENNKDADLYTSRVMLSSQVPLEPPLLFLLEEYKNYLDAANMSMRVRRHSDPARRGELSVCDSISEWVTAADKKTAVDMSGGTVTVLEKVPVSKGQLKQYFYETKCNPMGYTKEGCRGIDKRHWNSQCRTTQSYVRALTMDSKKRIGWRFIRIDTSCVCTLTIKRGR
modifications: N-terminal methionine
Turning to B1, the “Clearance from the CSF (half-life)” value is 42 min.
